Assays:
[1] = target: M44-modified P NTAA target peptides; assay: encoding assay; P2 M;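 further: fraction of recording tags encoded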
[2] = target: M44-modified F NTAA target peptides (M44-F-P2-peptide); assay: encoding assay; P2 M;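 further: fraction of recording tags encoded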
[3] = target: M44-modified L NTAA target peptides (M44-L-P2-peptide); assay: encoding assay; P2 M;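 further: fraction of recording tags encoded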
[4] = target: M44-modified V NTAA target peptides; assay: encoding assay; P2 M;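 further: fraction of recording tags encoded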
[5] = target: M44-modified M NTAA target peptides; assay: encoding assay; P2 M
[6] = target: M44-modified Y NTAA target peptides (M44-Y-P2-peptide); assay: encoding assay; P2 M;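 further: fraction of recording tags encoded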
[7] = target: M44-modified E NTAA target peptides; assay: encoding assay; P2 M;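 further: fraction of recording tags encoded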
[8] = target: M44-modified N NTAA target peptides; assay: encoding assay; P2 M
[9] = target: M44-modified T NTAA target peptides; assay: encoding assay; P2 M
[10] = target: M44-modified P NTAA target peptides; assay: encoding assay; P2 F;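 further: fraction of recording tags encoded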
[11] = target: M44-modified I NTAA target peptides (M44-I-P2-peptide); assay: encoding assay; P2 F
[12] = target: M44-modified Q NTAA target peptides; assay: encoding assay; P2 F
[13] = target: M44-modified F NTAA target peptides (M44-F-P2-peptide); assay: encoding assay; P2 F;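 further: fraction of recording tags encoded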
[14] = target: M44-modified H NTAA target peptides; assay: encoding assay; P2 F
[15] = target: M44-modified D NTAA target peptides; assay: encoding assay; P2 F;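 further: fraction of recording tags encoded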
[16] = target: M44-modified L NTAA target peptides (M44-L-P2-peptide); assay: encoding assay; P2 F;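 further: fraction of recording tags encoded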
[17] = target: M44-modified V NTAA target peptides; assay: encoding assay; P2 F;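 further: fraction of recording tags encoded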
[18] = target: M44-modified M NTAA target peptides; assay: encoding assay; P2 F
[19] = target: M44-modified A NTAA target peptides (M44-A-P2-peptide); assay: encoding assay; P2 F
[20] = target: M44-modified Y NTAA target peptides (M44-Y-P2-peptide); assay: encoding assay; P2 F;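 further: fraction of recording tags encoded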
[21] = target: M44-modified E NTAA target peptides; assay: encoding assay; P2 F;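 further: fraction of recording tags encoded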
[22] = target: M44-modified S NTAA target peptides; assay: encoding assay; P2 F
[23] = target: M44-modified N NTAA target peptides; assay: encoding assay; P2 F
[24] = target: M44-modified W NTAA target peptides; assay: encoding assay; P2 F;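 further: fraction of recording tags encoded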
[25] = target: M44-modified T NTAA target peptides; assay: encoding assay; P2 F
[26] = target: M44-modified G NTAA target peptides (M44-G-P2-peptide); assay: encoding assay; P2 F;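 further: fraction of recording tags encoded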
[27] = target: M44-modified I NTAA target peptides (M44-I-P2-peptide); assay: encoding assay; P2 D
[28] = target: M44-modified Q NTAA target peptides; assay: encoding assay; P2 D
[29] = target: M44-modified F NTAA target peptides (M44-F-P2-peptide); assay: encoding assay; P2 D;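 further: fraction of recording tags encoded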
[30] = target: M44-modified L NTAA target peptides (M44-L-P2-peptide); assay: encoding assay; P2 D;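 further: fraction of recording tags encoded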
[31] = target: M44-modified M NTAA target peptides; assay: encoding assay; P2 D
[32] = target: M44-modified A NTAA target peptides (M44-A-P2-peptide); assay: encoding assay; P2 D
[33] = target: M44-modified Y NTAA target peptides (M44-Y-P2-peptide); assay: encoding assay; P2 D;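 further: fraction of recording tags encoded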
[34] = target: M44-modified N NTAA target peptides; assay: encoding assay; P2 D
[35] = target: M44-modified W NTAA target peptides; assay: encoding assay; P2 D;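 further: fraction of recording tags encoded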
[36] = target: M44-modified G NTAA target peptides (M44-G-P2-peptide); assay: encoding assay; P2 D;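 further: fraction of recording tags encoded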
[37] = target: M44-modified F NTAA target peptides (M44-F-P2-peptide); assay: encoding assay; P2 W;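 further: fraction of recording tags encoded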
[38] = target: M44-modified D NTAA target peptides; assay: encoding assay; P2 W;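 further: fraction of recording tags encoded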
[39] = target: M44-modified I NTAA target peptides (M44-I-P2-peptide); assay: encoding assay; P2 A
[40] = target: M44-modified Q NTAA target peptides; assay: encoding assay; P2 A
[41] = target: M44-modified F NTAA target peptides (M44-F-P2-peptide); assay: encoding assay; P2 A;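 further: fraction of recording tags encoded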
[42] = target: M44-modified H NTAA target peptides; assay: encoding assay; P2 A
[43] = target: M44-modified L NTAA target peptides (M44-L-P2-peptide); assay: encoding assay; P2 A;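 further: fraction of recording tags encoded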
[44] = target: M44-modified V NTAA target peptides; assay: encoding assay; P2 A;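 further: fraction of recording tags encoded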
[45] = target: M44-modified M NTAA target peptides; assay: encoding assay; P2 A
[46] = target: M44-modified A NTAA target peptides (M44-A-P2-peptide); assay: encoding assay; P2 A
[47] = target: M44-modified Y NTAA target peptides (M44-Y-P2-peptide); assay: encoding assay; P2 A;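 further: fraction of recording tags encoded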
[48] = target: M44-modified N NTAA target peptides; assay: encoding assay; P2 A
[49] = target: M44-modified W NTAA target peptides; assay: encoding assay; P2 A;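 further: fraction of recording tags encoded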
[50] = target: M44-modified G NTAA target peptides (M44-G-P2-peptide); assay: encoding assay; P2 A;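 further: fraction of recording tags encoded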

B1: engineered M44-L binder (SEQ ID NO: 31) (designed binder, not shown: small tags and cut ends; large carriers)
chain: QDSTQNLIPAPPLISVPLQPGFWTERFQGRWFLVGFAGNAVQKERQSRLTMQSLILELQEDNSYNITAINVRGQGCRYIISTLVPSSRPGQFTLGNIHSYPQIQSLDVQVADTDYDQFAMVFLQGTSENKQYFEVALAGRTKGLSDELKERFVSFAKSLGLKDNNIVFSVPTDQCIDN
- encoding yield [1]: 0.02
- encoding yield [2]: 0.07
- encoding yield [3]: 0.19
- encoding yield [4]: 0.03
- encoding yield [5]: 0.02
- encoding yield [6]: 0.03
- encoding yield [7]: 0.03
- encoding yield [8]: 0.02
- encoding yield [9]: 0.05
- encoding yield [10]: 0.02
- encoding yield [11]: 0.08
- encoding yield [12]: 0.02
- encoding yield [13]: 0.09
- encoding yield [14]: 0.04
- encoding yield [15]: 0.03
- encoding yield [16]: 0.13
- encoding yield [17]: 0.03
- encoding yield [18]: 0.1
- encoding yield [19]: 0.05
- encoding yield [20]: 0.12
- encoding yield [21]: 0.03
- encoding yield [22]: 0.04
- encoding yield [23]: 0.05
- encoding yield [24]: 0.09
- encoding yield [25]: 0.04
- encoding yield [26]: 0.04
- encoding yield [27]: 0.01
- encoding yield [28]: 0.02
- encoding yield [29]: 0.03
- encoding yield [30]: 0.04
- encoding yield [31]: 0.02
- encoding yield [32]: 0.03
- encoding yield [33]: 0.03
- encoding yield [34]: 0.02
- encoding yield [35]: 0.02
- encoding yield [36]: 0.02
- encoding yield [37]: 0.27
- encoding yield [38]: 0.04
- encoding yield [39]: 0.07
- encoding yield [40]: 0.02
- encoding yield [41]: 0.11
- encoding yield [42]: 0.01
- encoding yield [43]: 0.14
- encoding yield [44]: 0.02
- encoding yield [45]: 0.05
- encoding yield [46]: 0.02
- encoding yield [47]: 0.04
- encoding yield [48]: 0.02
- encoding yield [49]: 0.08
- encoding yield [50]: 0.03

B2: engineered M44-L binder (SEQ ID NO: 21) (designed binder, not shown: small tags and cut ends; large carriers)
chain: QVSVQPNFQQDKFLGRWFYAGHASNSSWYREKVAALSMAKLVVAPATDGGLNATETFLRKNQCETITSLLQPAGSLGSYSSRSPHGGSTWSTSVVETDYDQYALLYLQGSKGPGEDFRGAILASRTQTPRAELKEKFTAFSKAQGFTEDTIVFLPQTDKCMTEQ
- encoding yield [1]: 0.01
- encoding yield [2]: 0.02
- encoding yield [3]: 0.02
- encoding yield [4]: 0.01
- encoding yield [5]: 0
- encoding yield [6]: 0.01
- encoding yield [7]: 0.01
- encoding yield [8]: 0.01
- encoding yield [9]: 0.02
- encoding yield [10]: 0.01
- encoding yield [11]: 0.07
- encoding yield [12]: 0.01
- encoding yield [13]: 0.01
- encoding yield [14]: 0.02
- encoding yield [15]: 0.01
- encoding yield [16]: 0.06
- encoding yield [17]: 0.01
- encoding yield [18]: 0.05
- encoding yield [19]: 0.01
- encoding yield [20]: 0.02
- encoding yield [21]: 0.01
- encoding yield [22]: 0.01
- encoding yield [23]: 0.01
- encoding yield [24]: 0.02
- encoding yield [25]: 0.02
- encoding yield [26]: 0.02
- encoding yield [27]: 0
- encoding yield [28]: 0.01
- encoding yield [29]: 0.01
- encoding yield [30]: 0.01
- encoding yield [31]: 0.01
- encoding yield [32]: 0.01
- encoding yield [33]: 0.01
- encoding yield [34]: 0.01
- encoding yield [35]: 0.01
- encoding yield [36]: 0.01
- encoding yield [37]: 0.09
- encoding yield [38]: 0.01
- encoding yield [39]: 0.29
- encoding yield [40]: 0.01
- encoding yield [41]: 0.07
- encoding yield [42]: 0.01
- encoding yield [43]: 0.19
- encoding yield [44]: 0.01
- encoding yield [45]: 0.06
- encoding yield [46]: 0.01
- encoding yield [47]: 0.01
- encoding yield [48]: 0.01
- encoding yield [49]: 0.01
- encoding yield [50]: 0.01

— patent US20230220589A1
